Measured values from article doi:10.1101/2022.11.23.517744.
Several values for one entry are separate records, joined by “and”; a condition that tells them apart may be missing. Identical values can stand only once.

Molecular target: human vinculin D1D2 (head domain subunits D1D2), wild type (human)
Assay: native gel or EMSA

Question: With “Shigella IpaA-VBS123 (C-terminal region with the three vinculin binding sites), wild type, GST cleaved (domain or fragment)” as the substance, how does the stoichiometry N (D1D2 per IpaA-VBS123) read?
Answer: Its stoichiometry N (D1D2 per IpaA-VBS123) is 2 and 3.
